32 sequences from the supplement of paper PMC9170038 can be followed below.

In this data set the test system is MS2 coat protein. The data set is described as follows: apparent KD of MS2 coat protein; designed switch direction (-1 OFF switch, 1 ON switch): -1; higher = weaker reporter binding. Put shortly: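 Stalled E. coli RNA polymerase transcribed designed RNA switches on Illumina chips, which were then titrated with SNAP-549-labelled MS2 coat protein, doubling from 0.7 or 1.5 nM to 3 µM. Steps lasted from 0.8–1.5 h at the lowest concentration to 10–20 min at the highest. The apparent KD is each design's median over clusters of curve-fitted normalised fluorescence.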

Setting [1] is: Eterna round: R95, input ligand: FMN 200 uM.
The mark [2] stands for this setting: Eterna round: R95, input ligand: microRNA oligo, concentration not stated.
Setting [3] is: Eterna round: R95, input ligand: none.
Where [4] appears, read: input ligand: microRNA oligo, concentration not stated.

“AUAAGUGAUAAGGAUAUCACUAGCCUCGGCUAGUGAGAAGGUAUCACAUGAGGAUCACCCAUGUGUUCCAAUAA [Ex6/7-A2] (Eterna round: R97, puzzle: Exclusion 6)”: the “apparent KD of MS2 coat protein” value stood at 1350 nM (input ligand: FMN 200 uM) and 169 nM (input ligand: none).
In the case of “AUAAUAAUAUAGGAUAUCGAAUUAAUUAUUUAACGAGAAGGAUGAACAUGAGGAUCACCCAUGUGGUAUCAUGG [Mat - Exclusion 6 - JL Mod - D34] (puzzle: Exclusion 6)”, the “apparent KD of MS2 coat protein” value stood at 255 nM under setting [1], 244 nM under setting [2] and 317 nM under setting [3].
Consider “AUAAUGUAAGGAUAUAUGAAUCACGGUGAUACACCGUGAAGAUAGAAGGUACAUGAGGAUCACCCAUGUAAGGC [Mod of Anonveat 12 - Jieux - Exclusion 4] (Eterna round: R97, puzzle: Exclusion 4)”, for which the “apparent KD of MS2 coat protein” value is 12.1 nM (input ligand: FMN 200 uM) and 21 nM (input ligand: none).
For “AUAAUGUAAGGAUAUCAGUCGUACAGCGAUAGCUGUACGACUGAGAAGGUACAUGAGGAUCACCCAUGUGAUCA [E4/8-A4] (Eterna round: R97, puzzle: Exclusion 4)” the same measures were 666 nM and 3680 nM.
Take “AUAAUGUCAGGAUAUCGAACUUACUACCUCGGUAGUAAGUUCGAGAAGGGACAUGAGGAUCACCCAUGUGAUCA [E4/1-A5] (Eterna round: R97, puzzle: Exclusion 4)”: the “apparent KD of MS2 coat protein” value reads like this: (input ligand: FMN 200 uM) 68.5 nM; (input ligand: none) 195 nM.
As to “AUAAUGUCAGGAUAUCGAGACUACUGCUUCGGCAGUAGUCUCGAGAAGGGACAUGAGGAUCACCCAUGUGAUCA [E4/1-A1] (Eterna round: R97, puzzle: Exclusion 4)”, the “apparent KD of MS2 coat protein” value reads like this: (input ligand: FMN 200 uM) 41.8 nM; (input ligand: none) 40.8 nM.
Turning to “AUAAUGUGAGGAUAUCACGGCCCGGAGAAUCCGGUAAACGAUGAGAAGGCACAUGAGGAUCACCCAUGUUCCUG [EX4 A.4] (Eterna round: R97, puzzle: Exclusion 4)”, the “apparent KD of MS2 coat protein” value (input ligand: FMN 200 uM) amounted to 44.3 nM and the “apparent KD of MS2 coat protein” value (input ligand: none) turned out to be 18.3 nM.
On the same counts, the results for “AUAAUGUGAGGAUAUCGAGACUACUGCUGCGGCAGUAGUCUCGAGAAGGCACAUGAGGAUCACCCAUGUGAUCA [E4/2-A3] (Eterna round: R97, puzzle: Exclusion 4)” are 89.7 nM and 1590 nM.
On the same counts, the results for “AUAAUUAGAGGAUAUGGUACAUUGCACAUGAGGAUCACCCAUGUAAGGUGACCCAUGUCGCCAGAAGGCUGAUAUG [Eternabot (L2) Solution 46] (Eterna round: R97, puzzle: Exclusion 5)” are 3460 nM and 460 nM.
For “AUACCACGAGGAUAUCGUCUAUAAUACAUGAGGAUCACCCAUGUUAUAUAUGUAAUGUUUCGAGAAGGCGUGUUUU [JR_E5_Sub082] (puzzle: Exclusion 5)”, the “apparent KD of MS2 coat protein” value under setting [2] turned out to be 14.7 nM.
Consider “AUACCACGAGGAUAUCGUCUAUUCCACAUGAGGAUCACCCAUGUUAUCCAUGUUUCGUUUCGAGAAGGCGUGUUUU [JR_E5_Sub075] (puzzle: Exclusion 5)”, for which the “apparent KD of MS2 coat protein” value under setting [2] was determined as 54.1 nM.
Consider “AUACGCCAGGUAGGAUAUAGUACGUCGGCAACAUGAGGAUCACCCAUGUGGCCUCGUGUCUGGCACUAGAAGGGCCGAGGCCUU [Raatalave] (Eterna round: R96, puzzle: Exclusion NG 2)”, for which the “apparent KD of MS2 coat protein” value (input ligand: FMN 200 uM) was determined as 33.5 nM, the “apparent KD of MS2 coat protein” value under setting [4] was found to be 26.2 nM and the “apparent KD of MS2 coat protein” value (input ligand: none) was found to be 30.9 nM.
Turning to “AUACUCGAAGGAUAUGUGUAAGAGUACAUGAGGAUCACCCAUGUCCUAAGCACUUGGACGGCAGAAGGUCGACUGU [Eternabot (L2) Solution 36] (Eterna round: R97, puzzle: Exclusion 5)”, the “apparent KD of MS2 coat protein” value (input ligand: FMN 200 uM) came to 57.7 nM and the “apparent KD of MS2 coat protein” value (input ligand: none) was 25.1 nM.
As for “AUAGUAUAGCAAGGAUAUCGAUUUAGUUUGUUACGAGAAGGUGCUUUAGUUUAUACCUCUUGUUUACAUGAGGAUCACCCAUGU [JR_ExcNG1_Sub048] (Eterna round: R96, puzzle: Exclusion NG 1)”, under setting [4], the “apparent KD of MS2 coat protein” value was determined as 19.4 nM.
Consider “AUAUUAACAUAGGAUAUCGAAUUUAUCAUUUAACGAGAAGGAUGAACAUGAGGAUCACCCAUGUGGUAUCAUGG [Mat - Exclusion 6 - JL Mod - D1] (puzzle: Exclusion 6)”, for which the “apparent KD of MS2 coat protein” value is, setting by setting: under setting [1], 171 nM; under setting [2], 144 nM; under setting [3], 249 nM.
For the sequence “AUAUUAAUAGUAAGGAUAUGCGUGUGUGUAGUUAUGCAGAAGGUACAUGAGGAUCACCCAUGUAUUAAUGUGUG [LRO-BmodExc4-08-Oppy's Opus] (Eterna round: R97, puzzle: Brourd's mod of Exclusion 4)”, the “apparent KD of MS2 coat protein” value is, setting by setting: (input ligand: FMN 200 uM) 18 nM; (input ligand: none) 19.7 nM.
Regarding “AUAUUACGAGGAUAUCGUCUCUCCCACAUGAGGAUCACCCAUGUUAUCCAUGUUUCGUUUCGAGAAGGCGUAAGUU [JR_E5_Sub071] (puzzle: Exclusion 5)”, the “apparent KD of MS2 coat protein” value under setting [2] amounted to 65.2 nM.
Turning to “AUAUUACGAGGAUAUCGUUUUUUUCACAUGAGGAUCACCCAUGUUAUUUAUGUUUCGUUUCGAGAAGGCGUAAGUU [JR_E5_Sub069] (puzzle: Exclusion 5)”, under setting [2], the “apparent KD of MS2 coat protein” value turned out to be 22.3 nM.
Turning to “AUAUUGAUAGUAAGGAUAUGCGUGUGUGUAGUGAUGCAGAAGGUACAUGAGGAUCACCCAUGUAUUAAUGUGUG [LRO-BmodExc4-10-Oppy's Opus] (Eterna round: R97, puzzle: Brourd's mod of Exclusion 4)”, the “apparent KD of MS2 coat protein” value (input ligand: FMN 200 uM) worked out at 20.5 nM and the “apparent KD of MS2 coat protein” value (input ligand: none) turned out to be 16.7 nM.
For “AUAUUUAAUAUAGGAUAUAGGAAGAAUGAUGAACUAGAAGGAUAACAUACAUGAGGAUCACCCAUGUCCCAUGUGAUCACCCAU [Seems to work in some way] (Eterna round: R96, puzzle: Exclusion NG 1)”, the “apparent KD of MS2 coat protein” value under setting [4] stood at 257 nM.
For the sequence “AUCAAAGAAUAUCAUAAGCACAUGAGGAUCACCCAUGUGAUGGGUGAGAGCCUGAAAGCCACUUCUGCUCGUCUUAU [Cac Sensor turn off var1 sub9] (Eterna round: R97, puzzle: Sensor, turn-off variant 1)”, the “apparent KD of MS2 coat protein” value reads like this: (input ligand: FMN 200 uM) 969 nM; (input ligand: none) 883 nM.
As for “AUCAGCUCGUCAGGAUAUGAACAUGAGGAUCACCCAUGUAAGAUCAAGCUGCUUCGGCAGCAAGUUCAGAAGGGACGAGCUGAU [ENG2/10-B3] (Eterna round: R96, puzzle: Exclusion NG 2)”, the “apparent KD of MS2 coat protein” value reads like this: (input ligand: FMN 200 uM) 169 nM; under setting [4], 93.3 nM; (input ligand: none) 112 nM.
For the sequence “AUCAUGGGAGGAUAUCACCUAUGUUACAUGAGGAUCACCCAUGUGAGACUAAAUGACUGCUGAGAAGGCUCAACGC [Eternabot (Original) Solution 25] (Eterna round: R97, puzzle: Exclusion 5)”, the “apparent KD of MS2 coat protein” value is, setting by setting: (input ligand: FMN 200 uM) 205 nM; (input ligand: none) 234 nM.
Regarding “AUCCUACAUGAGGAUCACCCAUGUCAGGAUAUCCAAGAAAUCUGGCCGUAUCGGCCAGGGAGAAGGGACAUGGU [jl-ex1-4.63 ViennaUCT mod] (Eterna round: R97, puzzle: Exclusion 1)”, the “apparent KD of MS2 coat protein” value is 85.3 nM (input ligand: FMN 200 uM) and 49 nM (input ligand: none).
On the same counts, the results for “AUCCUUAACAAGGAUAUCGGGCGGGAAAUUGUUUGAGAAGGUGUAACAUGAGGAUCACCCAUGUGGCGCGUGGA [-20.8, -18.9 kcal, A 28%] (Eterna round: R97, puzzle: Exclusion 6)” are 54.6 nM and 56.6 nM.
For the sequence “AUCUUGUAAGGAUAUCUGACAAGUGACGAAAGUCACAGUUCAGAGAAGGUACAUGAGGAUCACCCAUGUAGAAC [Ex4-3: 41] (puzzle: Exclusion 4)”, under setting [2], the “apparent KD of MS2 coat protein” value was determined as 15.9 nM.
For the sequence “AUGACAGGACAUGAGGAUCACCCAUGUACACGACCAAUGACCGAGGAUAUCGAUUGCAUGCAGGUCGAGAAGGCGGAGUAUCCA [Eternabot solution 3] (Eterna round: R96, puzzle: Exclusion NG 3)”, the “apparent KD of MS2 coat protein” value runs as follows: (input ligand: FMN 200 uM) 18.2 nM; under setting [4], 30.9 nM; (input ligand: none) 28.1 nM.
Consider “AUGACCUAAGGAUAUACAUGAGGAUCACCCAUGUCAGGUAAGCCUGUCCGCGGUGCAUGUAGAAGGUAGCUACC [EX3 A.27] (Eterna round: R97, puzzle: Exclusion 3)”, for which the “apparent KD of MS2 coat protein” value is, setting by setting: (input ligand: FMN 200 uM) 122 nM; (input ligand: none) 116 nM.
For “AUGAGCAGACGGAGAUCCAACAUGAGGAUCACCCAUGUCUCAAAAGCUUUUUGCUCAUCUUAUUGUACCUUGGUGCG [Mat - Sensor v3 - turn-off var 1 - JL Mod - D18] (puzzle: Sensor v3, turn-off variant 1)”, the “apparent KD of MS2 coat protein” value reads like this: under setting [1], 161 nM; under setting [2], 9.21 nM; under setting [3], 170 nM.
With “AUGAUGUUAGGAUAUCAUUGCCGGGUUUGAAAACACGGGAUUGAGAAGGAACAUGAGGAUCACCCAUGUGCCUC [EX4 C.9] (Eterna round: R97, puzzle: Exclusion 4)”, the “apparent KD of MS2 coat protein” value reads like this: (input ligand: FMN 200 uM) 118 nM; (input ligand: none) 27.5 nM.
Consider “AUGCCCUGAGGAUAUCUCAUCCCGCACAUGAGGAUCACCCAUGUUCUUCUCCGGGUUUCGAGAGAAGGCAGGCCUA [Armus4] (Eterna round: R97, puzzle: Exclusion 5)”, for which the “apparent KD of MS2 coat protein” value is 79.4 nM (input ligand: FMN 200 uM) and 249 nM (input ligand: none).
In the case of “AUGCCGCUAGGAUAUUGCAGCUGAUACAUGAGGAUCACCCAUGUGACUCGCUGGGUAGUGUAAGAAGGAGUGUGCU [Eternabot (L2) Solution 27] (Eterna round: R97, puzzle: Exclusion 5)”, the “apparent KD of MS2 coat protein” value is, setting by setting: (input ligand: FMN 200 uM) 21.3 nM; (input ligand: none) 24 nM.
